Test results published in paper PMC5648601.

Biological target: recombinant His-MYC-bHLH-LZ protein
Assay: BLI

- Kd: 225 nM
B1: recombinant GST-MKK3 protein (enzyme)
chain: MESPASSQPASMPQSKGKSKRKKDLRISCMSKPPAPNPTPPRNLDSRTFITIGDRNFEVEADDLVTISELGRGAYGVVEKVRHAQSGTIMAVKRIRATVNSQEQKRLLMDLDINMRTVDCFYTVTFYGALFREGDVWICMELMDTSLDKFYRKVLDKNMTIPEDILGEIAVSIVRALEHLHSKLSVIHRDVKPSNVLINKEGHVKMCDFGISGYLVDSVAKTMDAGCKPYMAPERINPELNQKGYNVKSDVWSLGITMIEMAILRFPYESWGTPFQQLKQVVEEPSPQLPADRFSPEFVDFTAQCLRKNPAERMSYLELMEHPFFTLHKTKKTDIAAFVKEILGEDS
